These results are taken from US20240287163A1 (Chugai, published 2024).

One may read the Kd as a measure of binding affinity in units of concentration.

To fix the notation:
B1: COS0637pHv17-G1A3FcgSil+LowpI (antibody, V domains shown)
VH: QVQLVESGGGVVQPGRSLRLSCAASGFTFSAYAMNWIRQPPGKGLEWIGLIYGSGHEFYASWAEERVTISVDTSKNQFSLKLSSVTAADTAVYYCARGRSKNYNSDFHLWGQGTLVTVSS
VL: DIQMTQSPSSLSASVGDRVTITCQAHEILHDKKNLAWYQQKPGQPPKLLIYGASQRESGVPSRFSGSGSGTDFTLTISSLQPEDFATYYCHGEFPHSSADLNHFGQGTKVEIKR
notes: VH 24, VL 55, CH 45, CL 23
B2: COS0637pHv15-G1A3FcgSil+LowpI (antibody, V domains shown)
VH: B1 VH
VL: B1 VL with H26N, Q55T, R56L, P95S, H96Y, S97H, H103T
notes: VH 24, VL 59, CH 45 (G1A3FcgSil+LowpI), CL 23
B3: COS0637pHv8-G1A3FcgSil+LowpI (antibody)
heavy: QVQLVESGGGVVQPGRSLRLSCAASGFTFSAYAMNWIRQPPGKGLEWIGLIYGSGHEFYASWAEERVTISVDTSKNQFSLKLSSVTAADTAVYYCARGRSKNYNSDFHLWGQGTLVTVSSASTKGPSVFPLAPSSRSTSESTAALGCLVKDYFPEPVTVSWNSGALTSGVHTFPAVLQSSGLYSLSSVVTVPSSSLGTQTYICNVNHKPSNTKVDKRVEPKSCDKTHTCPPCPAPELRRGPSVFLFPPKPKDTLMISRTPEVTCVVVDVSQEDPEVQFNWYVDGVEVHNAKTKPREEQYNSTYRVVSVLTVLHQDWLNGKEYKCKVSNKALPAPIEKTISKAKGQPREPQVYTLPPSQEEMTKNQVSLTCLVKGFYPSDIAVEWESNGQPENNYKTTPPVLDSDGSFFLYSKLTVDKSRWQEGNVFSCSVLHEALHAHTTRKELSLSP
light: DIQMTQSPSSLSASVGDRVTITCQANQILHDKKNLAWYQQKPGQPPKLLIYGASTLESGVPSRFSGSGSGTDFTLTISSLQPEDFATYYCHGEFSYSSADLNTFGQGTKVEIKRTVAAPSVFIFPPSDEQLKSGTASVVCLLNNFYPREAKVQWKVDNALQSGNSQESVTEQDSKDSTYSLSSTLTLSKADYEKHKVYACEVTHQGLSSPVTKSFNRGEC
notes: built from VH+CH and VL+CL
B4: COS0637pHv16-G1A3FcgSil+LowpI (antibody, V domains shown)
VH: B1 VH with A33T
VL: B1 VL
notes: VH 36, VL 55, CH 45, CL 23
B5: COS0637pHv8-TT91R (antibody, human IgG1)
heavy: QVQLVESGGGVVQPGRSLRLSCAASGFTFSAYAMNWIRQPPGKGLEWIGLIYGSGHEFYASWAEERVTISVDTSKNQFSLKLSSVTAADTAVYYCARGRSKNYNSDFHLWGQGTLVTVSSASTKGPSVFPLAPSSKSTSGGTAALGCLVKDYFPEPVTVSWNSGALTSGVHTFPAVLQSSGLYSLSSVVTVPSSSLGTQTYICNVNHKPSNTKVDKRVEPKSCDKTHTCPPCPAPEYLGGDSVFLFPPKPKDVLMISRTPEVTCVVIDVSHEDPEVKFNWYVDGVEVHNAKTKPREEQYNSTYRVVSVLPVLHRDWLNGKEYKCKVSNKALPKPIEKTISKAKGQRREPQVYTLPPSREEMTKNQVSLTCLVKGFYPSDIAVEWESNGQPENNYKTTPPVLDSDGSFFLYSKLTVDKSRWQQGNVFSCSVLHEALHAHTTRKELSLSP
light: B3 light
notes: also called COS637pHv8-TT91R

Where a chain is given by its changes, count along the chain named.

The first assay has as its target T1, recombinant human C1r2s2 tetramer (human, UniProt P09871 16-688; P00736 18-705).
T1 construct: C1s and C1r co-expressed in HEK293 and purified from the supernatant as tetramer; also called hC1r2s2
T1 chain 1: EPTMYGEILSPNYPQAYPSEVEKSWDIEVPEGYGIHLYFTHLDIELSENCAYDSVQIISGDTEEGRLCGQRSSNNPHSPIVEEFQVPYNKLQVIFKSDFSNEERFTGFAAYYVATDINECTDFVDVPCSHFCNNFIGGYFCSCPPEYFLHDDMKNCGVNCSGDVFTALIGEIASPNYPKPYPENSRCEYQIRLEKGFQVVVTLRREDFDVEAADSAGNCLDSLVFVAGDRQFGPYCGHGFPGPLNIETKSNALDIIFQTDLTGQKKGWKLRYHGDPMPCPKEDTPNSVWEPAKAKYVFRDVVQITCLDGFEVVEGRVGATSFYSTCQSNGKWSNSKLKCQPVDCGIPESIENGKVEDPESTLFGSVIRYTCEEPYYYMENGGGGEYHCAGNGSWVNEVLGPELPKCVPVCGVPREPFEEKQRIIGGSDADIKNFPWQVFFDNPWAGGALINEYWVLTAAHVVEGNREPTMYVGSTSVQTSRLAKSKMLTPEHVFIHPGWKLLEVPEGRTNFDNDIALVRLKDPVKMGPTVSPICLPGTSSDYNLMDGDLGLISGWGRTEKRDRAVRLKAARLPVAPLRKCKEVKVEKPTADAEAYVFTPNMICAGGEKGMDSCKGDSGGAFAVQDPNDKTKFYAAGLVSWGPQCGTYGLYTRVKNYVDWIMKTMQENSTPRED
T1 chain 2: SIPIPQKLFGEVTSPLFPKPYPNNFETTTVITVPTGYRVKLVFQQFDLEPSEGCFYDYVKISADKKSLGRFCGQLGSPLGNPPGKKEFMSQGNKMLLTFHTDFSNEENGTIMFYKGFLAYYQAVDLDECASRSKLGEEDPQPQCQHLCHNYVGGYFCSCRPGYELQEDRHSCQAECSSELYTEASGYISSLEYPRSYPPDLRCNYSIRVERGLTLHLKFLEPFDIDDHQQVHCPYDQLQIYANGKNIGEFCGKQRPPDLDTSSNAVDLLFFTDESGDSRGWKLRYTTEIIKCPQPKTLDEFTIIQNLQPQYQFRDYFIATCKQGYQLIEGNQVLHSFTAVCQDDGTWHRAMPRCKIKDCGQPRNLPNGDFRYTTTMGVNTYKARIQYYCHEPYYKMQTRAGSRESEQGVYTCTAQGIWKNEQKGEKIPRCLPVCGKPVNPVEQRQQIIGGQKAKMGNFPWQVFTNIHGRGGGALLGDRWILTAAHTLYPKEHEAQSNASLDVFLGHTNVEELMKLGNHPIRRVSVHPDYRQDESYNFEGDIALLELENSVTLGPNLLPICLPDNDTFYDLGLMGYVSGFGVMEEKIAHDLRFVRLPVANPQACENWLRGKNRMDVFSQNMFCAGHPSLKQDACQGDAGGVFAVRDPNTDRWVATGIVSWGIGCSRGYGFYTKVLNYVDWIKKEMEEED
As to the kind of experiment: SPR (Biacore T200), 37 C, pH 6.0; hC1r2s2 captured by IPN009, antibody as analyte. The method, then:
(§1) The binding property of each sample at pH7.4 and pH6.0 was determined at 37° C. using BIACORE® T200 instrument (Cytiva). […] 20 mM ACES, 150 mM NaCl, 1.2 mM CaCl₂, 1 mg/mL BSA (not containing IgG), 1 mg/mL CMD, 0.05% Tween® 20, 0.005 w/v % NaN₃, pH7.4 or pH6.0 buffer was used as the running buffer. […] The antibody solution was added thereto at 30 μL/min for 120 seconds, the running buffer was then added at 30 μL/min for 180 seconds, and the dissociation constant (KD) of each antibody for hC1r2s2 and cyC1r2s2 was calculated. […] The sensor surface was regenerated every cycle, using 3 M MgCl2 (prepared in-house). The KD value was calculated using BIACORE® T200 evaluation software version 2.0 (Cytiva). The binding strengths under each pH condition were compared by dividing the KD value at pH6.0 with the KD value at pH7.4.
(Surface plasmon resonance follows binding to a sensor surface in real time, without labels.)
On to B1, for which the Kd worked out at 32.9 nM.
Still for that read-out and setting: the figure for B2 is 318 nM.
In the case of B3, the dissociation constant (Kd) was found to be 19.3 nM.
B4: the equilibrium dissociation constant (Kd) stood at 29.2 nM.
The same measure, in the same setting: the same measure for B5: 12.5 nM.

The target in another assay is T2, recombinant cynomolgus C1r2s2 tetramer (cynomolgus monkey, limits assumed).
T2 construct: also called cyC1r2s2; monkey C1r2s2
T2 chain 1: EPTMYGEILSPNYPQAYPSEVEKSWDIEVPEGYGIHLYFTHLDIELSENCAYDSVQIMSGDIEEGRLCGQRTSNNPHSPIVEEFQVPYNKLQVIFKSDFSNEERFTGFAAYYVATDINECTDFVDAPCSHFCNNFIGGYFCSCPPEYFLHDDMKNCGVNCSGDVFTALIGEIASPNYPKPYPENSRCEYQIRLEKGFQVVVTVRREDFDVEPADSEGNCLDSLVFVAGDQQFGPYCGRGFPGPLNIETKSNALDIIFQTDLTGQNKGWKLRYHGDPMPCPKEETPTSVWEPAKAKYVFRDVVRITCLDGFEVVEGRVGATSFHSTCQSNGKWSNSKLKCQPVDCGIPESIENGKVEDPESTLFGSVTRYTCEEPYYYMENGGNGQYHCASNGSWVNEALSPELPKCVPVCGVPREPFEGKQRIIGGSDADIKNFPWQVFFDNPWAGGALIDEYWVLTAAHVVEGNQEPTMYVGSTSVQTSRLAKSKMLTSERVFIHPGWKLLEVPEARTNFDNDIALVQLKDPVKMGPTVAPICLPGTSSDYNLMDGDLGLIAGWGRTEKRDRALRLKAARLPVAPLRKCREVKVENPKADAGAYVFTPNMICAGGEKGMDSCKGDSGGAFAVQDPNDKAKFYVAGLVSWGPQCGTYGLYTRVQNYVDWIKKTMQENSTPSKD
T2 chain 2: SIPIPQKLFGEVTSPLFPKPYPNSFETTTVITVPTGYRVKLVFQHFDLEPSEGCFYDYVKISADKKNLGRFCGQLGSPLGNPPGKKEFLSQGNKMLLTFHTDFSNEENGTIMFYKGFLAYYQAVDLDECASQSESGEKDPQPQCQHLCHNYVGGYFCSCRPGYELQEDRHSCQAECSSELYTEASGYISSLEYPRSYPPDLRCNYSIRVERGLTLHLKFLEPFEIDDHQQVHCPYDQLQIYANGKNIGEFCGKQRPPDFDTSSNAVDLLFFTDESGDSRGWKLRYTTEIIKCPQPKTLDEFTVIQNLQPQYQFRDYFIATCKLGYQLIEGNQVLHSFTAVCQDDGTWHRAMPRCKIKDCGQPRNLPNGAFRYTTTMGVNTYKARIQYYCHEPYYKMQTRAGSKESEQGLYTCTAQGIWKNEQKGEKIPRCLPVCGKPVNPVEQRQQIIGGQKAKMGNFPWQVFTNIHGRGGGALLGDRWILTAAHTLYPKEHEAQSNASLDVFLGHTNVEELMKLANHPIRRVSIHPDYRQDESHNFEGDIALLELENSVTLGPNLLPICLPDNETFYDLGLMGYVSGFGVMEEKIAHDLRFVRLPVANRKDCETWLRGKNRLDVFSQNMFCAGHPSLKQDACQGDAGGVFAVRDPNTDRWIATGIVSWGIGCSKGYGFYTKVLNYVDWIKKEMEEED
As to the kind of experiment: SPR (Biacore T200), 37 C, pH 7.4; cyC1r2s2 captured by IPN009, antibody as analyte. The method, then: as §1
Turning to B1, the Kd was 0.252 nM.
Same read-out and setting: the figure for B2 is 0.492 nM.
As for B3, the Kd came to 0.365 nM.
Take B4: the Kd was determined as 0.196 nM.
Consider B5, for which the dissociation constant Kd stood at 0.345 nM.

The target in another assay is T2, recombinant cynomolgus C1r2s2 tetramer. The assay is described as follows: SPR (Biacore T200), 37 C, pH 6.0; cyC1r2s2 captured by IPN009, antibody as analyte. The method, then: as §1
In the case of B1, the Kd is 106 nM.
On to B2, for which the Kd came out at 111 nM.
The same measure, in the same setting: the figure for B3 is 30.3 nM.
The same measure, in the same setting: the same measure for B4: 91.2 nM.
For the molecule B5, the Kd is 23.3 nM.

The next assay has the same target. As to the kind of experiment: SPR (Biacore T200), 37 C; ratio of KD at pH 6.0 to KD at pH 7.4. As to the method: as §1
B1: the “KD (pH 6.0)/KD (pH 7.4)” value was determined as 421.
With B2, the “KD (pH 6.0)/KD (pH 7.4)” value was found to be 226.
Turning to B3, the “KD (pH 6.0)/KD (pH 7.4)” value was 83.
Consider B4, for which the “KD (pH 6.0)/KD (pH 7.4)” value came out at 465.
Same read-out and setting: the same measure for B5: 67.5.

A further assay deals with T1, recombinant human C1r2s2 tetramer. The assay is described as above. As to the method:
as §1
B1: the “KD (pH 6.0)/KD (pH 7.4)” value came to 143.
Regarding B2, the “KD (pH 6.0)/KD (pH 7.4)” value is 797.
On to B3, for which the “KD (pH 6.0)/KD (pH 7.4)” value was found to be 71.
Still for that read-out and setting: the same measure for B4: 161; for B5: 50.2.

Another assay has the same target. The assay is described as follows: SPR (Biacore T200), 37 C, pH 7.4; hC1r2s2 captured by IPN009, antibody as analyte. As to the method: as §1
Regarding B1, the Kd turned out to be 0.23 nM.
Regarding B2, the dissociation constant Kd amounted to 0.399 nM.
Same read-out and setting: the same measure for B3: 0.272 nM; for B4: 0.181 nM.
With B5, the Kd stood at 0.249 nM.
